Data on one substance can be found in patent US5681715.

Assay [1] addresses LipD, lipase from P. cepacia DSM 3401 (Pseudomonas cepacia DSM 3401).
Assay [2] deals with LipA-LipD hybrid lipase (pAHE16, pAHE23) (Pseudomonas cepacia DSM 3959; Pseudomonas cepacia DSM 3401) (UniProt P22088).
For assay [3], the target named is mature, extracellular lipase from P. cepacia DSM 3959 (Pseudomonas cepacia DSM 3959) (UniProt P22088).
Assay [4] concerns the target intracellular prelipase from P. cepacia DSM 3959 (Pseudomonas cepacia DSM 3959) (UniProt P22088).
For assay [5], the target named is LipA lipase of Pseudomonas cepacia DSM 3959 produced in E. coli from pAHE2 or pAHE10 (inclusion bodies) (Pseudomonas cepacia DSM 3959) (UniProt P22088).
For assay [6] the target is unchanged. The source holds these as a separate data set.
For assay [7], the target named is LipD, lipase from P. cepacia DSM 3401 (Pseudomonas cepacia DSM 3401). The source holds these as a separate data set.
Assay [8] deals with mature LipA produced in E. coli without signal peptide (pAHE19, pAHE22) (Pseudomonas cepacia DSM 3959) (UniProt P22088).

In assay [1], “LimA, Pseudomonas cepacia lipase modulator (chaperone molecule) from P. cepacia DSM 3959 (from UniProt P22089)” registered an LU after renaturation and % recovery, new preparation of 56 LU. Besides, the LU after renaturation worked out at 1 LU in assay [2], 1.3 LU in assay [3], 0 LU in assay [4] and 0.75 LU in assay [8]. The substance further came in with a No of LU recovered after denaturation and renaturation (pH stat), inclusion bodies undiluted in assay [5] of 16 LU. Further, the No of lipase units recovered after denaturation and renaturation, inclusion bodies diluted 1:10 in assay [6] was found to be 7.8 LU. Further, in assay [7], the No of LU recovered (+UREA) and % recovery after denaturation and renaturation, first preparation came to 0.45 LU.
